Experimental data as given in the DeepSol protein solubility set.

assay: soluble on expression in E. coli; label from the status in PepcDB or PDB records

| Sequence | soluble on expression in E. coli |
| --- | --- |
| MYKVDSPDAVDFINHQEIIETLEYARTHRNDRELIRNLIEKARLCKGLTHREAAILLECAEEDLTKEIFHLAKEIKQKFYGNRIVMFAPLYLSNYCVNGCVYCPYHLKNKTIIRKKLTQEEICREVIALQDMGHKRLALEAGEDPVRNSIDYILESIRTIYSIHHKNGAIRRVNVNIAATTVENYRKLKDAGIGTYILFQETYHKENYEQLHPTGPKSNYAYHTEAMDRAMQGGIDDVGMGVLFGLNTYRYDFVGLLMHAEHLEAVYGVGPHTISVPRICSADDINAEDFENAISDEIFQKIVAVIRISVPYTGMIISTRESQKTREKVLDLGISQISGGSRTSVGGYAEAETPEENSAQFDVSDTRTLDEVVNWLLKLGYIPSFCTACYRAGRTGDRFMSLVKSGQIANCCSPNALITLQEYLEDYASEETKARGVAMIKQEMQHIPNPKIRERALENLKQIAAGERDFRF | not soluble |
| MGSDKIHHHHHHMVVDGPRDPRMNMAIDEAILRVGAAPTLRIYMWLPGGLTLGRRQSVEDVNLAEAEKRGYVLVRRPTGGAALLHPWEREITYSLVLDSRHPYYSLDVAESAATIAGGVALALEELGIATRVGGYTPPPGVIGGLCYVRPGSSDVVVAGRKVSGSAQRRIGGRLLQHGTLLLRFDPEEWLSIIPVKGAGPSDLASRIAGIEDLAGRSYSFSEVADALVKGFSKALGLEPEPSGLEGREVEEALRLYRKKYSSPRWNLEGDEP | not soluble |
| MGSSHHHHHHGGTGENLYFQGGSGSFRYTNHLVATLKHRLFLEAAHRQLVRQTFTGVCNGIEVTCTAYGSVVGIRMLDRAVWEPHYQVAADNKSEAAAATPTAPAAASPSRPSSSSSSSSTASGKTGIDLVKLSASIQAATWQAIQKVRAAKEETHSRSLRRNPQVLAEARLRDWYEQDANTLHPRPFDGLKNLEATEWMQAVRFGVPQPARYRRPNAAPKDLGEGGDGAHTDQKPRETITVLRDEDCDPANIPIGSVHPLFAPGLLQLEVDPNVATNGGSRVDEFFVLSEQRKEMRRDEEAFWERVELIRRSQLATIPKGGVKRGYADMADTVQDSIEEKVQLRFTQ | soluble |
| MGSDKIHHHHHHMKLEELNSKYNAFITLHTIEEGNDKGKLKDVTFGIKDVILTKDVRTTAGSRVLENYVPQRNAYVVDAILREGGKIIGKTNTHEFALGATNTSSIGGPARNPVDPERISGGSSGGSAVAVKLDMVDVGIGTDTGGSVRIPSSLCGVIGFKPTTGLIPNDGVIPFSWSLDTVGIIVKDNIRLLRRVFDVVLPNEKRKVEIAKLRTRPRLGLFLFDDMEVSRILLKDIYAKLSSHFDIVEVDLPLLRQYGSKTRRTISLAEAASYHKDWISEYSDKYFKDTYTLLLDGMKISATDYIDALRHRRVLIEEYVKVFKNIDFILSPTTKIVAPRISDVISNPLQFREYLIANTELFNVVGAPSISVPFSTLNDLPAGLMISGELYKDGDLLEVAEYILNIVGKH | not soluble |
| MMMGEVQSLPSCGLHPRLLDALTLALAARPQEKAPGRYELQGDNVFMNVMQLTTQMPAEKKAELHEQYIDIQLLLTGVERIAFGMSGAARQCEEMHVEEDYQLCSQIVDEQTITLQAGMFAVFMPGEPHKPGCAVGEPDDIKKVVVKVRASLLAA | not soluble |
| MGSDKIHHHHHHMKLWAIYFEPEDWVGFRETRRFSFSDRVESVFPSSFPFYGAVRTALLMKNQKFDPGDVERAGDVRMFGPFVFENTPEGRKHYFPLPRNIYKTDSGYRVTPIVEIDGVYLPWKPEYKMDSKESTSGGLIELSDLELLRSNTQGVCKFDLVSAEKIFKKETHIGVAFEENRKKVKERMIYSISYYRFYDGGFFMFTDDERTVELVSKLDGVFLGMKSKWSAVEVEELNTTAFDPPDYKNVAVALITPAVFDGGGMPKDKTILGKRVLTTAGIRKQVVSGWDLRENKPKKIYHAVSPGAVYYLEGKVNGHVLNESKFTDFGFGRCIFMKYEKL | not soluble |
| MQQVIPAPRVQVTQPYAGQKPGTSGLRKKVSEATQPNYLENFVQSIFNTLRKDELKPKNVLFVGGDGRYFNRQAIFSIIRLAYANDISEVHVGQAGLMSTPASSHYIRKVNEEVGNCIGGIILTASHNPGGKEHGDFGIKFNVRTGAPAPEDFTDQIYTHTTKIKEYLTVDYEFEKHINLDQIGVYKFEGTRLEKSHFEVKVVDTVQDYTQLMQKLFDFDLLKGLFSNKDFSFRFDGMHGVAGPYAKHIFGTLLGCSKESLLNCDPSEDFGGGHPDPNLTYAHDLVELLDIHKKKDVGTVPQFGAACDGDADRNMILGRQFFVTPSDSLAVIAANANLIFKNGLLGAARSMPTSGALDKVAAKNGIKLFETPTGWKFFGNLMDAGLINLCGEESFGTGSNHIREKDGIWAVLAWLTILAHKNKNTDHFVTVEEIVTQYWQQFGRNYYSRYDYEQVDSAGANKMMEHLKTKFQYFEQLKQGNKADIYDYVDPVDQSVSKNQGVRFVFGDGSRIIFRLSGTGSVGATIRIYFEQFEQQQIQHETATALANIIKLGLEISDIAQFTGRNEPTVIT | soluble |
| MAHHHHHHMIVDSAVTERVVLQQQQELDAAERRCAAAEQRLEVELQKTFWRFLTTSAPDAVAAANRKQQSLGWANGGDGAGADSSLYRAEVDVSRFAEVRKAASPNPHRCNTAVAPFSPVRLVPVRTIKLSNEVGDASAAAAASRTQSPSKRSQDSALQPIVLDISPVSALSRCLGCCSGTQLGAIASSVSSAAEEHLLRLAHTRHSVLLFIGSESAAMDVMQSCKAPELLLGAGHSCRDRFQPLANHPVLRVLFTTRLWGANVVLLWNPAQDAALAVAAQAVVEDALELAYAWDADMFSVAVLEGARLPSYAGAGGVSAVATGASSTSAAFFASQAVSMEVLRQLRNSVTRELLDTAGMRRARRWQGTATWMQQGIGSAAAATTGTHMCPRAVGVLYVSQSAQQEQENQLQHQEVSCTASSIRSNAASPLRGDNSIVSVMSSSFLFSPTSPASAFRGPCITFNTPLAIRAFLPLAEEYFIREQPSLVRGSSRGGGDGHHGVSEAASSSTLNQEGGGARGLLRRTASATATEDDDASFSSEKDARFSPASLSATSAPASSPAIDAIRASGSGGEAGLRRQPEMTLESLIQYAFGDLAEIL | not soluble |
| KREHAKQHGMIRTEITGAEIAEEMEKERRLFQLQMCEYLIKVNEIKTKKGVDLLQNLIKYYHAQCNFFQDGLKTADKLKQYIEKLAADLYNIKQTQDEEKKQLTALRDLIKSSLQLDQKESRRDSQSRQGGYSMHQLQGNKEYGSEKKGYLLKKSDGIRKVWQRRKCSVKNGILTISHATSNRQPAKLNLLTCQVKPNAEDKKSFDLISHNRTYHFQAEDEQDYVAWISVLTNSKEEALTMAFRGEQSAGENSLEDLTKAIIEDVQRLPGNDICCDCGSSEPTWLSTNLGILTCIECSGIHREMGVHISRIQSLELDKLGTSELLLAKNVGNNSFNDIMEANLPSPSPKPTPSSDMTVRKEYITAKYVDHRFSRKTCSTSSAKLNELLEAIKSRDLLALIQVYAEGVELMEPLLEPGQELGETALHLAVRTADQTSLHLVDFLVQNCGNLDKQTALGNTVLHYCSMYSKPECLKLLLRSKPTVDIVNQAGETALDIAKRLKATQCEDLLSQAKSGKFNPHVHVEYEWNLRQEEIDESDDDLDDKPSPIKKERSPRPQSFCHSSSISPQDKLALPGFSTPRDKQRLSYGAFTNQIFVSTSTDSPTSPTTEAPPLPPRNAGKGPTGPPSTLPLSTQTSSGSSTLSKKRPPPPPPGHKRTLSDPPSPLPHGPPNKGAVPWGNDGGPSSSSKTTNKFEGLSQQSSTSSAKTALGPRVLPKLPQKVALRKTDHLSLDKATIPPEIFQKSSQLAELPQKPPPGDLPPKPTELAPKPQIGDLPPKPGELPPKPQLGDLPPKPQLSDLPPKPQMKDLPPKPQLGDLLAKSQTGDVSPKAQQPSEVTLKSHPLDLSPNVQSRDAIQKQASEDSNDLTPTLPETPVPLPRKINTGKNKVRRVKTIYDCQADNDDELTFIEGEVIIVTGEEDQEWWIGHIEGQPERKGVFPVSFVHILSD | soluble |
| MAHHHHHHMSGEKKEALKNDLPPIPGCDTDGQTYKSAEEMWAAELRGNLYDAETGWYGRSLQYWSKVPATVSGVLGGMEHIHDVDLKESRAFITSIPDRGTSRALDCGAGIGRVTKYLLSTLYTVTDLLEPVANMLEKAKEELKGYPVGEFFLSSMETVNLKPNTYDLIVIQWTAIYLTDDDFVKFLAHCKTALTLRGYIFFKENCSCDERFVVDKEDSSLTRSDAHYKRIFAAAGVEVVKETMQKEWPDDLFKVKMYALR | soluble |
| MSLKITADEALTLSKSNGSDIFLLCSFANKLREKFNGNHVDLCSVINAKSGNCSEDCAFCAQSAHHKANVSCYPLLNEDKILEMAKQREAYGARHCDIATSGLGYTGDEKDFQTILKAFKKMKENTNLKLCACLGTLTEKAMNSLAAVGVERYNHNLETAKSFYKNIVSTHGYDERIKTINYAKNAKMEVCSGMIVGLGETMEQRIEHALLLRDLNVDAVPVNILNPVKGTKLENAKPLSPMEIIKTFAIIRFILPDKIIRYAGGREKNLRSLQPLGFLSGLNGMLIGNYLTTNGQSVNDDFNMLKDLELEYEGHHHHHH | not soluble |
| MAHHHHHHMAAPSHQHSLVLERSTCHHYYHCVLYDILFDLPVREIAAQVVPCKDSNIVQRLTSADCRVVPHQLHVYKEPLEKKFGYVSFFVHRAPHSSTAADDVHRLVCEWVAVDLASQLATVQCKVQLAQPPECHSSEPFLNAFRLKCPLLDPTLAADTKKLETFVLTRVRFGQHCGNASVNQLNAVHCDDAKSAASAGSCGTETEMCTDDGLTATEGELDAGARSATRTLDEHVWKCVGTFLIASLSPKELVWLKKQLPSFPPLRIANGDMDTAYCDEAKLAQFFETSLAPLFTVDEVVEAAALNTVNSEA | not soluble |
| MTHATVTQTVHYHNGETGGQMQADTTNEVNFDRTVTIDTVTGEITHYGDWEADGDDYFKGFDSPTFDGYFADVQHTGEVKGVDPEQGTVDDVTITYYALEHHHHHH | soluble |
| TRELEDAQAMTEGERRKLASVIAYMTDGVIATNRNGAIILLNSPALELLNVSRETALEMPITSLLGLQENYTFEDLVEQQDSMLLEIERDDELTVLRVNFSVIQREHGKIDGLIAVIYDVT | not soluble |
| LPENGPEFKIEISLLKDQARVMIDTTGPSLFKRGYRTEKGGAPIKENMAAAIILLSNWFPDKPFVDPTCGSGTFCIEAAMIGMNIAPGFNRDFAFEEWPWVDEALVTRVRNEADEQADYDIQLDISGFDFDGRMVEIARKNAREVGLEDVVKLKQMRLQDFKTNKINGVLISNPPYGERLLDDKAVDILYNEMGETFAPLKTWSQFILTNDTDFEQKFGRKADKKRKLYNGSLKVDLYQFYGQRVKRVLR | not soluble |
| MLKSVLGKFSVGDKMIEVTFLGAGGGRFVTITQVRSTGGFFIKASKNIFVDPGPGALIRMIRYKLDPRKIDVLFISHRHTDHCNDAEVIVEGMTYGVTKRRGILIGSRSVVHGDDAHTPALSKYHLEALEEVHAPNPGDRFKLGNEDMVITPSVHSDPTTIGFRLKTNFGDISYIADTEYFEGLEEWHDGTRVLIASVTRPRDMKIPYHLSTDDVVYMLKKMKEKPEVLIMTHLGMKMHFAGPYKEAEYIQNVTGVKTYVAKEGFRITIGKEIHVKTLRPVRFVLEHHHHHH | soluble |
| MKIQCDVCEKAPATLICCADEAALCAKCDVEVHAANKLASKHQRLFLDSLSTKFPPCDICLEKAAFIFCVEDRALLCRDCDEATHAPNTRSANHQRFLATGIRVALSSTSCNQEVEKNHFDPSNQQSLSKPPTQQPAAPSPLWATDEFFSYSDLDCSNKKEQLDLGELDWLAEMGLFGDQPDQEALPVAEVPELSFSHLAHAHSYNRPMKSNVPNKKQRLEYRYDDEEEHFLVPDLG | not soluble |
| MSGQSLTDRITAAQHSVTGSAVSKTVCKATTHEIMGPKKKHLDYLIQCTNEMNVNIPQLADSLFERTTNSSWVVVFKSLITTHHLMVYGNERFIQYLASRNTLFNLSNFLDKSGLQGYDMSTFIRRYSRYLNEKAVSYRQVAFDFTKVKRGADGVMRTMNTEKLLKTVPIIQNQMDALLDFNVNSNELTNGVINAAFMLLFKDAIRLFAAYNEGIINLLEKYFDMKKNQCKEGLDIYKKFLTRMTRISEFLKVAEQVGIDRGDIPDLSQAPSSLLDALEQHLASLEGKK | soluble |
